# According to paper PMC13544220, “Glycemic and bodyweight effects of GIPR coding variation reflect differences in surface expression and intrinsic functional impairment” (Science Advances, 2026):
# Substitutions are numbered along the chain they refer to. Numbers in names are those of the source.
# B1: R341P (protein, UniProt P48546 22-466, looked up, variant R341P)
# Gastric inhibitory …: RAETGSKGQTAGELYQRWERYRRECQETLAAAEPPSGLACNGSFDMYVCWDYAAPNATARASCPWYLPWHHHVAAGFVLRQCGSDGQWGLWRDHTQCENPEKNEAFLDQRLILERLQVMYTVGYSLSLATLLLALLILSLFRRLHCTRNYIHINLFTSFMLRAAAILSRDRLLPRPGPYLGDQALALWNQALAACRTAQIVTQYCVGANYTWLLVEGVYLHSLLVLVGGSEEGHFRYYLLLGWGAPALFVIPWVIVRYLYENTQCWERNEVKAIWWIIRTPILMTILINFLIFIRILGILLSKLRTRQMRCRDYRLRLAPSTLTLVPLLGVHEVVFAPVTEEQARGALRFAKLGFEIFLSSFQGFLVSVLYCFINKEVQSEIRRGWHHCRLRRSLGEEQRQLPERAFRALPSGSGPGEVPTSRGLSSGTLPGPGNEASRELESYC
# B2: R136W (protein, UniProt P48546 22-466, looked up, variant R136W)
# Gastric inhibitory …: B1 Gastric inhibitory … with R115W, P320R
# Assays:
# Assay type in all cases: cell-based, human
# [1] = tested on: wild-type and variant SNAP-GIPR; assay: cADDis cAMP imaging in AD293 cells, ensemble, expression-matched and per decile; settings: Fig S3F, cADDis, mean;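 note: Ensemble cells as % of IBMX/FSK response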
# Summary of the method: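 AD293 cells were transfected with SNAP-GIPR constructs and cotransduced with the cADDis Green Up cAMP sensor, then labeled after 24 h with 500 nM SNAP-Surface Alexa Fluor 647. Per-cell cADDis intensity was tracked at 37°C in KRBH with 6 mM glucose and 0.1% BSA.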
# [2] = tested on: wild-type and variant SNAP-GIPR; assay: Surface SNAP-GIPR expression (SNAP-tag labelling) in INS-1 cells; settings: Fig 4G; Mean
# Summary of the method: (§1)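 Read-out: whole-cell fluorescence of surface-only SNAP label (Alexa Fluor 647, 500 nM, 10 min, RT), wide-field 20X, several FOVs per well. Flat-field corrected, phase-contrast masked, nontransfected-well signal subtracted; normalized to experiment mean or wild-type.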
# [3] = tested on: wild-type and variant SNAP-GIPR; assay: Single-concentration GIP cAMP response by HTRF in INS-1 cells; settings: Fig S3E, mean
# Procedure: (§2) All variants were tested in parallel on each occasion to control for transfection efficiency differences between experiments.
# [4] = tested on: wild-type and variant SNAP-GIPR; assay: Constitutive and agonist-mediated internalization, reversible SNAP-tag labelling, AD293 cells; parameters: key to Internalisation, Vehicle / Internalisation, +GIP / Internalisation, GIP-only: % internalization: residual fluorescence after Mesna vs pre-Mesna; Surface expression: unit not given here; settings: Mean; for +GIP internalisation (100 nM) / GIP-specific internalisation (100 nM) / Constitutive internalisation (100 nM) / Surface expression: Fig 4E; for +GIP internalisation (100 nM) / GIP-specific internalisation (100 nM): GIP 100 nM; for Internalisation, +GIP / Internalisation, GIP-only / Internalisation, Vehicle: Fig S4C, AD293
# Summary of the method: (§3)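 Percentage internalization calculated as specific SNAP fluorescence remaining after 10 min Mesna exposure, relative to pre-Mesna signal, imaged in TNE buffer (pH 8.6).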
# [5] = tested on: wild-type and variant SNAP-GIPR; assay: Single-concentration GIP cAMP response by HTRF in AD293 cells; settings: Fig S3F, HTRF, mean;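 note: ratio to experiment-wide average response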
# Procedure: as §2
# [6] = tested on: wild-type and variant SNAP-GIPR; assay: Constitutive and agonist-mediated internalization, reversible SNAP-tag labelling, INS-1 cells; parameters: key to Internalisation, GIP-only / Internalisation, Vehicle / Internalisation, +GIP: % internalization: residual fluorescence after Mesna vs pre-Mesna; settings: Mean; for +GIP internalisation (100 nM) / GIP-specific internalisation (100 nM) / Constitutive internalisation (100 nM): Fig 4G; for +GIP internalisation (100 nM) / GIP-specific internalisation (100 nM): GIP 100 nM; for Internalisation, +GIP / Internalisation, GIP-only / Internalisation, Vehicle: Fig S4C, INS-1
# Summary of the method: as §3
# [7] = tested on: wild-type and variant SNAP-GIPR; assay: Surface SNAP-GIPR expression (SNAP-tag labelling) in AD293 cells; settings: for AD293 Surface: Fig S3E, mean; for Surface SNAP-GIPR expression: sheet Fig 1C;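 for all read-outs here: scaled to the experimental average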
# Summary of the method: as §1
# [8] = column repeated, paired with cAMP 100 nM
molecule,measurement,setting,value
B1,AD293 100 pM cADDis,[1],0.6137
same,AD293 100 nM cADDis,[1],9.179
same,Surface expression,[2],0.2942
same,INS-1 cAMP (100 nM),[3],-0.2249
same,+GIP internalisation (100 nM),[4],0.1278
same,GIP-specific internalisation (100 nM),[4],0.02136
same,Constitutive internalisation (100 nM),[4],0.1065
same,Surface expression,[4],0.1733
same,"Internalisation, +GIP",[4],72.1567
same,"Internalisation, GIP-only",[4],15.7264
same,"Internalisation, Vehicle",[4],56.4303
same,AD293 100 pM HTRF,[5],0.001435
same,AD293 100 nM HTRF,[5],0.1915
same,+GIP internalisation (100 nM),[6],0.1423
same,GIP-specific internalisation (100 nM),[6],0.02008
same,Constitutive internalisation (100 nM),[6],0.1222
same,"Internalisation, +GIP",[6],48.645
same,"Internalisation, GIP-only",[6],6.527
same,"Internalisation, Vehicle",[6],42.1183
same,AD293 Surface,[7]; [8],0.2494
same,AD293 Surface,[7]; paired with cAMP 100 pM,0.2494
same,Surface SNAP-GIPR expression,[7]; replicate 1,0.3004
same,Surface SNAP-GIPR expression,[7]; replicate 2,0.416
same,Surface SNAP-GIPR expression,[7]; replicate 3,0.1222
same,Surface SNAP-GIPR expression,[7]; replicate 4,0.3179
same,Surface SNAP-GIPR expression,[7]; replicate 5,0.375
same,Surface SNAP-GIPR expression,[7]; replicate 6,0.2191
same,Surface SNAP-GIPR expression,[7]; replicate 7,0.3629
same,Surface SNAP-GIPR expression,[7]; replicate 8,0.2975
same,Surface SNAP-GIPR expression,[7]; replicate 9,0.196
same,Surface SNAP-GIPR expression,[7]; replicate 10,0.2642
same,Surface SNAP-GIPR expression,[7]; replicate 11,0.31
same,Surface SNAP-GIPR expression,[7]; replicate 12,0.2856
same,Surface SNAP-GIPR expression,[7]; replicate 13,0.6221
same,Surface SNAP-GIPR expression,[7]; replicate 14,0.2061
same,Surface SNAP-GIPR expression,[7]; replicate 15,0.2357
same,Surface SNAP-GIPR expression,[7]; replicate 16,0.2383
same,Surface SNAP-GIPR expression,[7]; replicate 17,0.211
same,Surface SNAP-GIPR expression,[7]; replicate 18,0.144
same,Surface SNAP-GIPR expression,[7]; replicate 19,0.3559
same,Surface SNAP-GIPR expression,[7]; replicate 20,0.2316
same,Surface SNAP-GIPR expression,[7]; replicate 21,0.2368
same,Surface SNAP-GIPR expression,[7]; replicate 22,0.1783
same,Surface SNAP-GIPR expression,[7]; replicate 23,0.2272
same,Surface SNAP-GIPR expression,[7]; replicate 24,0.2138
same,Surface SNAP-GIPR expression,[7]; replicate 25,0.2383
same,Surface SNAP-GIPR expression,[7]; replicate 26,0.2262
same,Surface SNAP-GIPR expression,[7]; replicate 27,0.2274
same,Surface SNAP-GIPR expression,[7]; replicate 28,0.2002
same,Surface SNAP-GIPR expression,[7]; replicate 29,0.197
same,Surface SNAP-GIPR expression,[7]; replicate 30,0.3017
same,Surface SNAP-GIPR expression,[7]; replicate 31,0.1334
same,Surface SNAP-GIPR expression,[7]; replicate 32,0.2186
same,Surface SNAP-GIPR expression,[7]; replicate 33,0.2522
same,Surface SNAP-GIPR expression,[7]; replicate 34,0.2282
same,Surface SNAP-GIPR expression,[7]; replicate 35,0.2532
same,Surface SNAP-GIPR expression,[7]; replicate 36,0.1015
same,Surface SNAP-GIPR expression,[7]; replicate 37,0.1446
same,Surface SNAP-GIPR expression,[7]; replicate 38,0.2212
same,Surface SNAP-GIPR expression,[7]; replicate 39,0.2317
same,Surface SNAP-GIPR expression,[7]; replicate 40,0.2075
same,Surface SNAP-GIPR expression,[7]; replicate 41,0.2741
B2,AD293 100 pM cADDis,[1],19.5296
same,AD293 100 nM cADDis,[1],38.38
same,Surface expression,[2],1.406
same,INS-1 cAMP (100 nM),[3],1.164
same,+GIP internalisation (100 nM),[4],0.7747
same,GIP-specific internalisation (100 nM),[4],0.1529
same,Constitutive internalisation (100 nM),[4],0.6218
same,Surface expression,[4],1.49
same,"Internalisation, +GIP",[4],52.0458
same,"Internalisation, GIP-only",[4],10.2879
same,"Internalisation, Vehicle",[4],41.7579
same,AD293 100 pM HTRF,[5],0.0806
same,AD293 100 nM HTRF,[5],1.324
same,+GIP internalisation (100 nM),[6],0.6838
same,GIP-specific internalisation (100 nM),[6],0.1408
same,Constitutive internalisation (100 nM),[6],0.543
same,"Internalisation, +GIP",[6],46.5117
same,"Internalisation, GIP-only",[6],9.467
same,"Internalisation, Vehicle",[6],37.045
same,AD293 Surface,[7]; [8],1.539
same,AD293 Surface,[7]; paired with cAMP 100 pM,1.539
same,Surface SNAP-GIPR expression,[7]; replicate 1,1.301
same,Surface SNAP-GIPR expression,[7]; replicate 2,1.896
same,Surface SNAP-GIPR expression,[7]; replicate 3,1.558
same,Surface SNAP-GIPR expression,[7]; replicate 4,1.426
same,Surface SNAP-GIPR expression,[7]; replicate 5,1.728
same,Surface SNAP-GIPR expression,[7]; replicate 6,1.162
same,Surface SNAP-GIPR expression,[7]; replicate 7,1.369
same,Surface SNAP-GIPR expression,[7]; replicate 8,1.722
same,Surface SNAP-GIPR expression,[7]; replicate 9,1.795
same,Surface SNAP-GIPR expression,[7]; replicate 10,1.62
same,Surface SNAP-GIPR expression,[7]; replicate 11,1.44
same,Surface SNAP-GIPR expression,[7]; replicate 12,1.625
same,Surface SNAP-GIPR expression,[7]; replicate 13,1.681
same,Surface SNAP-GIPR expression,[7]; replicate 14,1.394
same,Surface SNAP-GIPR expression,[7]; replicate 15,1.54
same,Surface SNAP-GIPR expression,[7]; replicate 16,1.63
same,Surface SNAP-GIPR expression,[7]; replicate 17,1.488
same,Surface SNAP-GIPR expression,[7]; replicate 18,1.722
same,Surface SNAP-GIPR expression,[7]; replicate 19,2.073
same,Surface SNAP-GIPR expression,[7]; replicate 20,1.443
same,Surface SNAP-GIPR expression,[7]; replicate 21,1.607
same,Surface SNAP-GIPR expression,[7]; replicate 22,1.548
same,Surface SNAP-GIPR expression,[7]; replicate 23,1.562
same,Surface SNAP-GIPR expression,[7]; replicate 24,1.636
same,Surface SNAP-GIPR expression,[7]; replicate 25,1.259
same,Surface SNAP-GIPR expression,[7]; replicate 26,1.57
same,Surface SNAP-GIPR expression,[7]; replicate 27,1.295
same,Surface SNAP-GIPR expression,[7]; replicate 28,1.198
same,Surface SNAP-GIPR expression,[7]; replicate 29,1.582
same,Surface SNAP-GIPR expression,[7]; replicate 30,1.517
same,Surface SNAP-GIPR expression,[7]; replicate 31,1.447
same,Surface SNAP-GIPR expression,[7]; replicate 32,1.457
same,Surface SNAP-GIPR expression,[7]; replicate 33,1.855
same,Surface SNAP-GIPR expression,[7]; replicate 34,1.376
same,Surface SNAP-GIPR expression,[7]; replicate 35,1.615
same,Surface SNAP-GIPR expression,[7]; replicate 36,1.418
same,Surface SNAP-GIPR expression,[7]; replicate 37,1.346
same,Surface SNAP-GIPR expression,[7]; replicate 38,1.685
same,Surface SNAP-GIPR expression,[7]; replicate 39,1.551
same,Surface SNAP-GIPR expression,[7]; replicate 40,1.483
same,Surface SNAP-GIPR expression,[7]; replicate 41,1.492
